Test results reported in patent publication US20090111098A1 (SHIONOGI, published 2009).
Each block holds one binder with its values, some of them ahead of it.

What was measured:
[1] = molecular target: T1, peptide GEPGDDAPS (region corresponding to amino acids 757 to 765 of human type 2 collagen) (human); assay: property stated for the prepared monoclonal antibody
T1 construct: The immunogen carried an added C-terminal cysteine and was conjugated to KLH
T1 peptide: GEPGDDAPS

[2] = molecular target: T2, peptide GPPGPQG (region corresponding to amino acids 769 to 775 of human type 2 collagen) (human); assay: as above
T2 construct: The immunogen carried an added N-terminal cysteine and was conjugated to BSA; The DELFIA screen was run as for 6G4
T2 peptide: GPPGPQG

binding result [1]: binds
B1: 6G4 antibody (monoclonal antibody produced by hybridoma TAG-6G4) (antibody, IgG1, V domains shown)
VH: EVQLVESGGSLVQPGGSLKLSCAASGFTFNNYGMSWVRQIPDKRLELVATITGNGHSTYYPVSVRGRFTISRDNAKNTLYLQMSSLKSEDTAMYYCVRGYSNFAFWGQGTTLTVSS
VL: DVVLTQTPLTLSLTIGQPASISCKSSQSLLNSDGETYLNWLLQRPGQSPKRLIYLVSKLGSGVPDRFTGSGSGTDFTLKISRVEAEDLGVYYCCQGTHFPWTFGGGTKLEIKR
notes: Mouse monoclonal IgG1 (k), 150 kDa; also called cryptate-labeled 6G4 antibody; FERM ABP-10483

binding result [2]: binds
B2: 2E6 antibody (monoclonal antibody produced by hybridoma TAG-2E6) (antibody, V domains shown)
VH: QVTLKESGPGILQPSQTLSLTCSFSGFSLSTYGMGVGWIRQPSGKGLEWLAHIWWNDNKYYNTTLKSRLTISKDTSNKQVFLKIASVDTADTATYYCARIERWDPWFAYWGQGTLVTVSA
VL: DVVMTQTPLSLPVSLGDQASISCRSSQSLVYSNGNTYFHWYLQKPGQSPKLLIYKVSNRFSGVPDRFSGSGSGTDFTLKISRVEAEDLGVYFCSQSTHVPLTFGAGTKLELKR
notes: Mouse monoclonal IgG2b (k), 150 kDa; also called XL665-labeled 2E6 antibody; FERM ABP-10482
